Laboratory results: patent US20090240037A1 (IMMUNOMEDICS, published 2009)
Substitutions are numbered along the chain they refer to.

What was measured:
[1] = target: CD20 (human B lymphocyte-restricted differentiation antigen Bp35) on Raji cells (human) (UniProt P11836); experiment: cell surface competitive binding on Raji cells, 4 C, 1-2 h; unlabeled rituximab against tracer 125I-labeled rituximab; column head IC50 nM
[2] = target: CD20 (human B lymphocyte-restricted differentiation antigen Bp35) on Raji cells (human) (UniProt P11836); experiment: cell surface competitive binding on Raji cells, 4 C, 1-2 h; unlabeled rituximab against tracer 125I-labeled c2B8/rituximab
[3] = target: CD20 (human B lymphocyte-restricted differentiation antigen Bp35) on Raji cells (human) (UniProt P11836); experiment: staining of NHL cell lines (Raji, Ramos, RL, Daudi, Su-DHL-6)
[4] = target: CD20 (human B lymphocyte-restricted differentiation antigen Bp35) on Raji cells (human) (UniProt P11836); experiment: cell surface competitive binding on Raji cells, 4 C, 1-2 h; unlabeled murine A20 against tracer 125I-labeled murine A20
[5] = target: CD20 (human B lymphocyte-restricted differentiation antigen Bp35) on Raji cells (human) (UniProt P11836); experiment: cell surface competitive binding on Raji cells; unlabeled murine A20 against tracer 125I-labeled murine A20
[6] = target: CD20 (human B lymphocyte-restricted differentiation antigen Bp35) on Raji cells (human) (UniProt P11836); experiment: direct binding of radiolabeled MAb to Raji cells, Scatchard plot analysis
[7] = target: CD20 (human B lymphocyte-restricted differentiation antigen Bp35) on Raji cells (human) (UniProt P11836); experiment: cell surface competitive binding on Raji cells, 4 C, 1-2 h; competitor tracer 125I-labeled rituximab; column head IC50 nM
[8] = target: T1, soluble CEA (Scripps Laboratories) (UniProt P06731 35-685, limits assumed); experiment: competitive ELISA; antigen not given, CEA per paragraph 119
T1 construct: Coated at 0.5 ug/well in the ELISA; also injected as soluble analyte in BIAcore
T1 sequence (looked up): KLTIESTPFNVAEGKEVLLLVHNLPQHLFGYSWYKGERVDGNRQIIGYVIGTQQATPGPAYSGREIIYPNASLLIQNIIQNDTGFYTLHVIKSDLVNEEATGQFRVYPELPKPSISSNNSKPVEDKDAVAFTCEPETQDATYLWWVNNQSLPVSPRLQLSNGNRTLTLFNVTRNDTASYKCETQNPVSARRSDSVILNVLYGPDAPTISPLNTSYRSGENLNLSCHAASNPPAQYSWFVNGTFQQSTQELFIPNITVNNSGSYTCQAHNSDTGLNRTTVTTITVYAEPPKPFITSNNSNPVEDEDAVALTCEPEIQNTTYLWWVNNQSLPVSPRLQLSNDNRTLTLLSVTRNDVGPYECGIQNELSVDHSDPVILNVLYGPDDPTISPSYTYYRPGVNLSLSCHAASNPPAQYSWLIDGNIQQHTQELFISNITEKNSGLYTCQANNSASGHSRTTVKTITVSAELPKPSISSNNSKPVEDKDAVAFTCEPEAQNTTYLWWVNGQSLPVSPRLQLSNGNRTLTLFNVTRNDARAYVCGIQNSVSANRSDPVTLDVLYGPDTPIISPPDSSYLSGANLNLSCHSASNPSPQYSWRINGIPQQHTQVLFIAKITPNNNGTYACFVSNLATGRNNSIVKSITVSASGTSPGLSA

[9] = target: T2, CD20 (human B lymphocyte-restricted differentiation antigen Bp35) on Raji cells (human, UniProt P11836 1-297); experiment: cell surface competitive binding on Raji cells, 4 C, 1-2 h; competitor tracer 125I-labeled murine 2B8
T2 construct: whole, on cells; The assays name the cells (Raji, Ramos, RL, Daudi, Su-DHL-6); also called CD20 antigen; hCD20
T2 sequence (looked up): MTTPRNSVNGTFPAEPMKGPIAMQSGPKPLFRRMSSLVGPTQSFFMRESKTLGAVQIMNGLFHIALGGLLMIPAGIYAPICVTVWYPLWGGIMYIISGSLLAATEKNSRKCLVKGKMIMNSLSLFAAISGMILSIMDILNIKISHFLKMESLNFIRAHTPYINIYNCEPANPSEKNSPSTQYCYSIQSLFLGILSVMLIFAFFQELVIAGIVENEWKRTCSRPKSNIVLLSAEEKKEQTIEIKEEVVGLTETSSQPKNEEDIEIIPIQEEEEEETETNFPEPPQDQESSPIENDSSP
Protocol: (§1) Unbound Abs were removed by washing the cells with PBS. Radioactivity associated with the cells was determined after washing.

[10] = target: T2, CD20 (human B lymphocyte-restricted …); experiment: direct binding of radiolabeled MAb to Raji cells, Scatchard plot analysis
[11] = target: T2, CD20 (human B lymphocyte-restricted …); experiment: cell surface competitive binding on Raji cells, 4 C, 1-2 h; competitor tracer 125I-labeled rituximab
Protocol: as §1

[12] = target: T2, CD20 (human B lymphocyte-restricted …); experiment: cell surface competitive binding on Raji cells, 4 C, 1-2 h; competitor tracer 125I-labeled c2B8/rituximab
[13] = target: T2, CD20 (human B lymphocyte-restricted …); experiment: cell surface competitive binding on Raji cells; competitor tracer 125I-labeled murine A20
Protocol: (§2) Unbound Abs were removed by washing the cells in PBS. The radioactivity associated with cells was determined after washing.

[14] = target: T1, soluble CEA (Scripps Laboratories); experiment: competitive ELISA on CEA-coated wells (0.5 ug/well); competitor HRP-conjugated hMN14 IgG, 1 nM
Protocol: FIG. 15 is a graphical representation of the results of a competitive enzyme-linked immunosorbent assay (ELISA). […] The % inhibition is plotted vs. nM concentration of sample.
Microtiter plates were coated with 0.5 μg/well with soluble CEA (Scripps Laboratories).

[15] = target: T1, soluble CEA (Scripps Laboratories); experiment: ELISA on CEA
[16] = target: T2, CD20 (human B lymphocyte-restricted …); experiment: cell surface competitive binding on Raji cells, 4 C, 1-2 h; competitor tracer 125I-labeled murine A20
Protocol: as §2

[17] = target: T2, CD20 (human B lymphocyte-restricted …); experiment: cell surface competitive binding on Raji cells, 4 C, 1-2 h; competitor tracer 125I-labeled rituximab; column head IC50 nM
Protocol: as §1

rituximab (IDEC Pharmaceuticals Corp.) (antibody)
IC50 [1]: 5 nM
IC50 (read off the curve) [2]: 7 nM
percent of cells stained [3]: > 99%

A20, murine anti-CD20 MAb (antibody)
IC50 (read off the curve) [4]: 4 nM
IC50 (read off the curve) [5]: 20 nM

hA20, humanized anti-CD20 antibody (variant hA20-1 or hA20-2 not specified)
percent of cells stained [3]: > 99%
Kd [6]: 4.2 nM

murine B1 anti-CD20 antibody
IC50 [7]: 34 nM

B1: hMN14 diabody (hMN14-scFv-L5) (scFv)
scFv: MEVQLVESGGGVVQPGRSLRLSCSASGFDFTTYWMSWVRQAPGKGLEWIGEIHPDSSTINYAPSLKDRFTISRDNAKNTLFLQMDSLRPEDTGVYFCASLYFGFPWFAYWGQGTPVTVSGGGGSDIQLTQSPSSLSASVGDRVTITCKASQDVGTSVAWYQQKPGKAPKLLIYWTSTRHTGVPSRFSGSGSGTDFTFTISSLQPEDIATYYCQQYSLYRSFGQGTKVEIKRLEHHHHHH
modifications: Non-covalent homodimer (diabody) of two copies of this chain.
notes: Non-covalent homodimer of the scFv; the pelB leader is removed in the mature polypeptide; One codon before the VH and two between the VK and the tag are not spelled out in the text
binding result [8]: binds

B2: cA20, chimeric anti-CD20 antibody (antibody, V domains shown)
VH: QVQLQQPGAELVKPGASVKMSCKASGYTFTSYNMHWVKQTPGRGLEWIGAIYPGNGDTSYNQKFKGKATLTADKSSSTAYMQLSSLTSEDSAVYYCARSTYYGGDWYFDVWGQGTTVTVSS
VL: DIQLTQSPAILSASPGEKVTMTCRASSSVSYIHWFQQKPGSSPKPWIYATSNLASGVPVRFSGSGSGTSYSLTISRVEAEDAATYYCQQWTSNPPTFGGGTKLEIK
notes: Murine A20 variable domains with human constant regions; expressed in Sp2/0 cells; also called chimeric A20
IC50 (read off the curve) [9]: ~9 nM
Kd [10]: 2.9 nM
IC50 (read off the curve) [11]: ~9 nM
IC50 (read off the curve) [12]: ~6 nM
IC50 (read off the curve) [13]: ~10 nM

B3: BS1.5 (679 x hMN14 bispecific diabody: variant 2) (bispecific antibody)
chain 1: MEVQLVESGGDLVKPGGSLKLSCAASGFTFSIYTMSWLRQTPEKRLEWVATLSGDGDDIYYPDSVKGRFTISRDNAKNNLYLQMNSLRSADTALYYCARVRLGDWDFDVWGQGTTVSVSSGGGGSDIQLTQSPSSLSASVGDRVTITCKASQDVGTSVAWYQQKPGKAPKLLIYWTSTRHTGVPSRFSGSGSGTDFTFTISSLQPEDIATYYCQQYSLYRSFGQGTKVEIKRLEHHHHHH
chain 2: MEVQLVESGGGVVQPGRSLRLSCSASGFDFTTYWMSWVRQAPGKGLEWIGEIHPDSSTINYAPSLKDRFTISRDNAKNTLFLQMDSLRPEDTGVYFCASLYFGFPWFAYWGQGTPVTVSGGGGSDIVMSQSPSSLAVSPGEKVTMTCKSSQSLFNSRTRKNYLGWYQQKPGQSPKLLIYWASTRESGVPDRFTGSGSGTDFTLTINSVQSEDLAVYYCTQVYYLCTFGAGTKLELKRLEHHHHHH
notes: Heterodimer of the two polypeptides; pelB leaders removed; copies: 1 + 1
binding result [14]: binds

B4: BS1 (679 x hMN14 bispecific diabody: variant 1) (bispecific antibody)
chain 1: B3 chain 1 with Q4I
chain 2: B3 chain 2
notes: as for B3
binding result [15]: binds

B5: BS2 (679 x hMN14 bispecific diabody: variant 3) (bispecific antibody)
chain 1: B3 chain 1
chain 2: B3 chain 2 with C225S
notes: as for B3
binding result [15]: binds

B6: hA20-1, humanized anti-CD20 antibody (hA20VH1 + hA20Vk) (antibody, human IgG1, V domains shown)
VH: QVQLQQSGAEVKKPGSSVKVSCKASGYTFTSYNMHWVKQAPGQGLEWIGAIYPGNGDTSYNQKFKGKATLTADESTNTAYMELSSLRSEDTAFYYCARSTYYGGDWYFDVWGQGTTVTVSS
VL: DIQLTQSPSSLSASVGDRVTMTCRASSSVSYIHWFQQKPGKAPKPWIYATSNLASGVPVRFSGSGSGTDYTFTISSLQPEDIATYYCQQWTSNPPTFGGGTKLEIKR
IC50 (read off the curve) [9]: ~10 nM
IC50 (read off the curve) [16]: ~4 nM
IC50 [17]: 6.8 nM
IC50 (read off the curve) [12]: ~9 nM

B7: hA20-2, humanized anti-CD20 antibody (hA20VH2 + hA20Vk) (antibody, human IgG1, V domains shown)
VH: B6 VH with T30S, K38R, I48M, K67R, L70I, Y95F
VL: B6 VL
IC50 (read off the curve) [9]: ~10 nM
IC50 (read off the curve) [16]: ~4 nM
